{"source": "patent US6977240", "about": "(Takeda / Millennium, dated 2005)", "molecules": {"B1": {"name": "unfused AP (alkaline phosphatase) (enzyme, UniProt P05187 23-511, looked up)", "chain": "IIPVEEENPDFWNREAAEALGAAKKLQPAQTAAKNLIIFLGDGMGVSTVTAARILKGQKKDKLGPEIPLAMDRFPYVALSKTYNVDKHVPDSGATATAYLCGVKGNFQTIGLSAAARFNQCNTTRGNEVISVMNRAKKAGKSVGVVTTTRVQHASPAGTYAHTVNRNWYSDADVPASARQEGCQDIATQLISNMDIDVILGGGRKYMFRMGTPDPEYPDDYSQGGTRLDGKNLVQEWLAKRQGARYVWNRTELMQASLDPSVTHLMGLFEPGDMKYEIHRDSTLDPSLMEMTEAALRLLSRNPRGFFLFVEGGRIDHGHHESRAYRALTETIMFDDAIERAGQLTSEEDTLSLVTADHSHVFSFGGYPLRGSSIFGLAPGKARDRKAYTVLLYGNGPGYVLKDGARPDVTESESGSPEYRQQSAVPLDEETHAGEDVAVFARGPQAHLVHGVQEQTFIAHVMAFAACLEPYTACDLAPPAGTTDAAHPG", "notes": "Control; also called control AP"}, "B2": {"name": "mouse AP-Ob fusion protein (ligand, UniProt P41160 22-167, looked up, not shown: large carriers)", "chain": "VPIQKVQDDTKTLIKTIVTRINDISHTQSVSAKQRVTGLDFIPGLHPILSLSKMDQTLAVYQQVLTSLPSQNVLQIANDLENLRDLLHLLAFSKSCSLPQTSGLQKPESLDGVLEASLYSTEVVALSRLQGSLQDILQQLDVSPEC", "notes": "mature; AP at the N-terminus, predicted mature Ob at the C-terminus; used as COS-7 conditioned medium; also called murine AP-Ob; AP-Ob (mouse)"}}, "key": {"[1]": {"molecular_target": "human ObR long form, expressed on transfected cells (human) (UniProt P48357)", "assay": "cell-based or functional assay"}, "[2]": {"molecular_target": "T1, murine short form ObR (clone famj5312), expressed on COS cells (mouse, UniProt P48356 23-889)", "T1 construct": "also called mouse ObR; mouse short form", "T1 sequence": "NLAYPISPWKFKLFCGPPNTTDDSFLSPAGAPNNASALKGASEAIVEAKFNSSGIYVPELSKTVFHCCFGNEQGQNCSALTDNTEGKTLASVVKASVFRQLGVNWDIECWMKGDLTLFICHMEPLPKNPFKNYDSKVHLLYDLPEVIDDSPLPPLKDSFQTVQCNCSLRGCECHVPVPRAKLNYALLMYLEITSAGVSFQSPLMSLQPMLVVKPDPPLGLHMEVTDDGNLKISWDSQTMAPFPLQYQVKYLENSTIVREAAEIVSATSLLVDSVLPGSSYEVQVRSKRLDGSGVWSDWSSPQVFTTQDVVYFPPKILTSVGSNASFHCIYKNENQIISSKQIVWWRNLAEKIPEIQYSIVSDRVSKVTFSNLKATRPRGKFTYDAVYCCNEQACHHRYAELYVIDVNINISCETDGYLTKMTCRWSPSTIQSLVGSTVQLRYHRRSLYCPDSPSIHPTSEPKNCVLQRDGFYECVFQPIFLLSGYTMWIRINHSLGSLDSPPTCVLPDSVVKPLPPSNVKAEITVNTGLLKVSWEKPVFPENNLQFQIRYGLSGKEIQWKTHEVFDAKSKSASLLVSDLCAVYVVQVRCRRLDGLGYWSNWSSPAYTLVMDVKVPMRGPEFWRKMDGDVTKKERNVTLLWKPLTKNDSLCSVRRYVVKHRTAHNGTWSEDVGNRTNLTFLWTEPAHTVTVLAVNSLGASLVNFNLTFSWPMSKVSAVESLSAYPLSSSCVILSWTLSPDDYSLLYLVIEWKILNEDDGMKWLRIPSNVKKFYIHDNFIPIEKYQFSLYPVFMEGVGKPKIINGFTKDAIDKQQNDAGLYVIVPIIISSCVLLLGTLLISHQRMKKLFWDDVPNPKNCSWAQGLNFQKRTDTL", "assay": "AP activity bound to COS cells transfected with the ObR clone", "method": "(§1) In Situ Fusion Protein Binding. Quartered mouse brains, isolated choroid plexus, cells, and cell lines were rinsed once with HBHA (Hank's balanced salt solution with 0.5 mg/ml BSA, 0.1% NaN_3, 20 mM HEPES [pH 7.0]) in 12-well plates. Tissue was then incubated with tissue culture supernatants containing AP-Ob fusion, Ob-AP fusion, or control supernatants (i.e., supernatants containing unfused AP only, containing AP-OB or OB-AP fusion proteins plus 80-fold molar excess of *E. coli*-derived recombinant OB, or supernatants from mock-transfected COS cells), for 75 minutes with gentle rotation, at room temperature. Samples were then treated as described previously (Cheng, H. J. and Flanagan, J. G., 1994, *Cell* 79:157–168).\n(§2) After transient transfection of the ObR clone into COS cells, strong binding of 1 nM murine AP-Ob is detected (relative to mock transfected COS cells or ObR transfected COS cells incubated with unfused AP) (FIG. 2A). […] A fusion between AP and human Ob also binds mouse ObR with high affinity, as does a fusion protein with mouse leptin at the N-terminus and AP at the C-terminus (Ob-AP)."}, "[3]": {"molecular_target": "T2, Ob receptor in mouse choroid plexus tissue (mouse, UniProt P48356 23-889)", "T2 construct": "Native receptor in quartered mouse brain", "T2 sequence": "T1 sequence", "assay": "AP staining of quartered mouse brain tissue", "method": "as §1"}, "[4]": {"molecular_target": "T3, human ObR long form, expressed on transfected cells (human, UniProt P48357 21-1165)", "T3 construct": "also called human long form; long form of ObR", "T3 sequence": "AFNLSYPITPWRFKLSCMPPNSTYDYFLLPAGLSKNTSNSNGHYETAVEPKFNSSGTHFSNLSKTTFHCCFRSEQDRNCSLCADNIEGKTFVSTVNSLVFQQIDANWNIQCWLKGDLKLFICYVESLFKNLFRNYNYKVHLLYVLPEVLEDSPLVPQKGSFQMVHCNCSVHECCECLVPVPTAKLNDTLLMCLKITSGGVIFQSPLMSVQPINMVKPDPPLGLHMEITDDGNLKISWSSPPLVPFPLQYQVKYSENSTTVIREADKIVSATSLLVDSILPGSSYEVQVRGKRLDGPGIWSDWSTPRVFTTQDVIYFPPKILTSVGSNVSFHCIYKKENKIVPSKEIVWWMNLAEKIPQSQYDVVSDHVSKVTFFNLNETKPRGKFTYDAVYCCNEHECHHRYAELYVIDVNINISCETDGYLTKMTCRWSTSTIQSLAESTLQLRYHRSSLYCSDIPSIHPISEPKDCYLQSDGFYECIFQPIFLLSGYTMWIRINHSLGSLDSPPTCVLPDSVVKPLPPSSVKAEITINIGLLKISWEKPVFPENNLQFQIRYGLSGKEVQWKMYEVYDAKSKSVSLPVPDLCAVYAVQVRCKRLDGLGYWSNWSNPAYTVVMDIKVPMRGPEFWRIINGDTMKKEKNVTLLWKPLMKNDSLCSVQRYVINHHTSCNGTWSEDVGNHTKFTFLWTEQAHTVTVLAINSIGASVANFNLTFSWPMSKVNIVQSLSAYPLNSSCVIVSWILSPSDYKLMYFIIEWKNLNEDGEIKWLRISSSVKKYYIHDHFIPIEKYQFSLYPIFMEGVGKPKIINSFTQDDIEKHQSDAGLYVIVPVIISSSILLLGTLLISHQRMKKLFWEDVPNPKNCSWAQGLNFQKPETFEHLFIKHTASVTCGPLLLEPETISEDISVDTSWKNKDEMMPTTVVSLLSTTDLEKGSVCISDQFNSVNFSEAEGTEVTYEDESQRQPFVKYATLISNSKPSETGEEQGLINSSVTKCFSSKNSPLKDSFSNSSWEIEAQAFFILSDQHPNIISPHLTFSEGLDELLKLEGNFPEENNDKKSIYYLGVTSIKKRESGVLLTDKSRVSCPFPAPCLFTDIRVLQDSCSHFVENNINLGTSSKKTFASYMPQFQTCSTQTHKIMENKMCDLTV", "assay": "Scatchard transformation of AP-OB binding to transfected COS cells", "method": "(§3) FIG. 2B-1 Binding isotherm and Scatchard analysis of the interaction of AP-Ob and ObR. COS-7 cells transfected with the obR cDNA were incubated with various concentrations of the AP-Ob (mouse) fusion protein FIG. 2B-2. Scatchard transformation is shown as an inset. Paragraph beginning at page 16, line 3, please replace the paragraph with the following text:\nas §2\n(§4) To determine whether ObR has the ability to recruit the cellular signaling machinery, COS cells were transiently transfected with expression vectors for the two representative forms of ObR, mouse short form (also corresponding to a mutated form detected in db/db mice) and human long form. Two days after transfection, cells were incubated in 1 nM human or mouse alkaline phosphatase-OB, and cell surface expression of ObR was detected as indicated by specific binding of the alkaline phosphatase-OB (AP-OB) fusion protein."}, "[5]": {"molecular_target": "T1, murine short form ObR (clone famj5312), …", "assay": "Scatchard transformation of AP-OB binding to transfected COS cells", "method": "as §3, §2, §4"}, "[6]": {"molecular_target": "T1, murine short form ObR (clone famj5312), …", "assay": "1 nM AP-OB on transfected COS cells; reference human long form ObR; laid to surface expression by the filing", "method": "COS-1, H-35 and Hep3B cells were transfected with plasmid DNA by the DEAE-dextran method (Lopata et al., 1989, *Nucleic Acids Res.* 12:5707–5717); HepG2 cells by the calcium phosphate method (Graham et al., 1973, *Virology* 52:456–461); and COS-7 cells by the lipofectamine method. Subcultures of COS cells were maintained for 16 hours in serum-free medium prior to the activation of STAT proteins by treatment with cytokines for 15 minutes. DNA binding by STAT proteins was determined by EMSA on whole cell extracts as described in Sadowski et al. (1993, *Science* 26:1739–1744). […] CAT activities were quantitated by testing serial dilutions of cell extracts, normalized to the expression of the cotransfected marker plasmid pIE-MUP (Morella et al., 1995, *J. Biol. Chem.* 270:[…]), and are expressed relative the value of the untreated control cultures in each experimental series (defined as =1.0). Quantitative cell surface binding of the AP-OB fusion protein (Section 6) was done essentially as outlined by Cheng and Flanagan (1994, Cell 79:157–168).\nTo determine whether ObR has the ability to recruit the cellular signaling machinery, COS cells were transiently transfected with expression vectors for the two representative forms of ObR, mouse short form (also corresponding to a mutated form detected in db/db mice) and human long form. […]"}}}
{"molecule": "leptin (Section 16, species not stated) (ligand)", "values": [{"measurement": "pIL6RE-SEAP reporter activity in 293 cells, 100 ng/ml leptin for 24 hours", "setting": "[1]", "result": 8, "unit": "fold"}]}
{"molecule": "B1", "values": [{"measurement": "binding result", "setting": "[2]", "result": "no binding"}, {"measurement": "binding result", "setting": "[3]", "result": "no binding"}]}
{"molecule": "B2", "values": [{"measurement": "Kd", "setting": "[4]", "result": 1000, "unit": "pM"}, {"measurement": "Kd", "setting": "[5]", "result": 700, "unit": "pM"}, {"measurement": "fold binding against the long form", "setting": "[6]", "result": "~10", "unit": "fold"}]}
